What all share (settings): both partners purified
Test [1] addresses T1, AtNF-YB2/AtNF-YC3 dimer (recombinant, renatured together) (Arabidopsis thaliana, UniProt Q9FGJ3 1-190; Q9ZVL3 1-217).
T1 construct: AtNF-YB2, Arabidopsis thaliana; as the chain of m23; AtNF-YC3, Arabidopsis thaliana; as the chain of m43; source: E. coli, each subunit purified from inclusion bodies, denatured and renatured when mixed together
T1 sequence (looked up) 1: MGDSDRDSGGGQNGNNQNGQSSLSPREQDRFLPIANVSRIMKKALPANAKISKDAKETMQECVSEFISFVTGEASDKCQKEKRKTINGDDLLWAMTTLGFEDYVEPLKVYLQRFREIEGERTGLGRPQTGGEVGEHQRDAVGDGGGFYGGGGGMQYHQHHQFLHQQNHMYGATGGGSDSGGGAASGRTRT
T1 sequence (looked up) 2: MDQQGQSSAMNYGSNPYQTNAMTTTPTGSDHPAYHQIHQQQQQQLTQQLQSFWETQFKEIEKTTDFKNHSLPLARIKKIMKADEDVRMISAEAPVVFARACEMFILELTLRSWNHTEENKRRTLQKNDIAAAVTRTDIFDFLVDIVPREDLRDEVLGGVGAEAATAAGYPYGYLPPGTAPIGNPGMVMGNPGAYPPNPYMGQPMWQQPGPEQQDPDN
Put plainly: native gel or EMSA; Figure 5A: recombinant AtNF-YB/AtNF-YC dimers with recombinant AtNF-YA6 or recombinant mouse NF-YA; 32P-labelled CCAAT oligonucleotide; NF-Y buffer, 15 min 20°C; 4.5% polyacrylamide; the read-out is the trimer bound to DNA. On the technique in general: Mobility shift assays separate free from complexed probe on a gel.

For test [2], the target named is T2, His-tagged recombinant AtNF-YC3 (Arabidopsis thaliana, UniProt Q9ZVL3 1-217).
T2 construct: AtNF-YC3, Arabidopsis thaliana; source: E. coli, purified (Nickel-agarose); found in inclusion bodies, denatured and renatured
T2 sequence (looked up): T1 sequence (looked up) 2
The experiment in a line: co-renaturation of denatured subunits; single His-tagged HFD subunits from E. coli inclusion bodies, denatured and renatured when mixed together.

For test [3], the target named is T3, His-tagged recombinant AtNF-YC7 (Arabidopsis thaliana, UniProt Q9FGP8 1-212).
T3 construct: AtNF-YC7, Arabidopsis thaliana; source: E. coli, purified (Nickel-agarose); found in inclusion bodies, denatured and renatured
T3 sequence (looked up): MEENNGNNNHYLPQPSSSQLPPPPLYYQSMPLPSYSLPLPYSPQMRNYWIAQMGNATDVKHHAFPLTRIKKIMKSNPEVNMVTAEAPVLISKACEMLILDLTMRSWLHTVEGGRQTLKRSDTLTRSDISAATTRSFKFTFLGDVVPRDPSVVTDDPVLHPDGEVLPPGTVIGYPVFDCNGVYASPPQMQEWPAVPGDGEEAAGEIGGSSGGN
The description is as above.

The values below come from article PMC3422339, “Interactions and CCAAT-Binding of Arabidopsis thaliana NF-Y Subunits” (PLoS ONE, 2012).

B1: recombinant mouse NF-YA (347 residues) (natural protein)
chain: not shown
notes: mouse NF-YA; 347 residues as printed; source: recombinant
Turning to B1, the binding result in test [1] is recorded as “binds”.

B2: His-tagged recombinant AtNF-YB2 (natural protein, Arabidopsis thaliana, UniProt Q9FGJ3 1-190, looked up)
chain: T1 sequence (looked up) 1
notes: AtNF-YB2, Arabidopsis thaliana; also called His-AtNF-YB2; source: E. coli BL21, purified (Nickel-agarose); found in inclusion bodies, denatured and renatured
Turning to B2, the binding result in test [2] and in test [3] was “binds” in each case.

B3: recombinant AtNF-YA6 (His-tagged) (natural protein)
chain: not shown
notes: AtNF-YA6, Arabidopsis thaliana; 308 residues as printed; source: E. coli, purified (Nickel-agarose)
B3: the binding result in test [1] is given as “binds”.
